Assay results as given in paper PMC4477863.

Biological target: Shroom2 ASD2 domain (UniProt Q13796)
Experiment: pull-down of Ala mutants
Conditions: reference: Scrib-C wild type; sites S1508

Chain of UniProt Q13796 (Q13796 whole entry, looked up, the tested form may be a part): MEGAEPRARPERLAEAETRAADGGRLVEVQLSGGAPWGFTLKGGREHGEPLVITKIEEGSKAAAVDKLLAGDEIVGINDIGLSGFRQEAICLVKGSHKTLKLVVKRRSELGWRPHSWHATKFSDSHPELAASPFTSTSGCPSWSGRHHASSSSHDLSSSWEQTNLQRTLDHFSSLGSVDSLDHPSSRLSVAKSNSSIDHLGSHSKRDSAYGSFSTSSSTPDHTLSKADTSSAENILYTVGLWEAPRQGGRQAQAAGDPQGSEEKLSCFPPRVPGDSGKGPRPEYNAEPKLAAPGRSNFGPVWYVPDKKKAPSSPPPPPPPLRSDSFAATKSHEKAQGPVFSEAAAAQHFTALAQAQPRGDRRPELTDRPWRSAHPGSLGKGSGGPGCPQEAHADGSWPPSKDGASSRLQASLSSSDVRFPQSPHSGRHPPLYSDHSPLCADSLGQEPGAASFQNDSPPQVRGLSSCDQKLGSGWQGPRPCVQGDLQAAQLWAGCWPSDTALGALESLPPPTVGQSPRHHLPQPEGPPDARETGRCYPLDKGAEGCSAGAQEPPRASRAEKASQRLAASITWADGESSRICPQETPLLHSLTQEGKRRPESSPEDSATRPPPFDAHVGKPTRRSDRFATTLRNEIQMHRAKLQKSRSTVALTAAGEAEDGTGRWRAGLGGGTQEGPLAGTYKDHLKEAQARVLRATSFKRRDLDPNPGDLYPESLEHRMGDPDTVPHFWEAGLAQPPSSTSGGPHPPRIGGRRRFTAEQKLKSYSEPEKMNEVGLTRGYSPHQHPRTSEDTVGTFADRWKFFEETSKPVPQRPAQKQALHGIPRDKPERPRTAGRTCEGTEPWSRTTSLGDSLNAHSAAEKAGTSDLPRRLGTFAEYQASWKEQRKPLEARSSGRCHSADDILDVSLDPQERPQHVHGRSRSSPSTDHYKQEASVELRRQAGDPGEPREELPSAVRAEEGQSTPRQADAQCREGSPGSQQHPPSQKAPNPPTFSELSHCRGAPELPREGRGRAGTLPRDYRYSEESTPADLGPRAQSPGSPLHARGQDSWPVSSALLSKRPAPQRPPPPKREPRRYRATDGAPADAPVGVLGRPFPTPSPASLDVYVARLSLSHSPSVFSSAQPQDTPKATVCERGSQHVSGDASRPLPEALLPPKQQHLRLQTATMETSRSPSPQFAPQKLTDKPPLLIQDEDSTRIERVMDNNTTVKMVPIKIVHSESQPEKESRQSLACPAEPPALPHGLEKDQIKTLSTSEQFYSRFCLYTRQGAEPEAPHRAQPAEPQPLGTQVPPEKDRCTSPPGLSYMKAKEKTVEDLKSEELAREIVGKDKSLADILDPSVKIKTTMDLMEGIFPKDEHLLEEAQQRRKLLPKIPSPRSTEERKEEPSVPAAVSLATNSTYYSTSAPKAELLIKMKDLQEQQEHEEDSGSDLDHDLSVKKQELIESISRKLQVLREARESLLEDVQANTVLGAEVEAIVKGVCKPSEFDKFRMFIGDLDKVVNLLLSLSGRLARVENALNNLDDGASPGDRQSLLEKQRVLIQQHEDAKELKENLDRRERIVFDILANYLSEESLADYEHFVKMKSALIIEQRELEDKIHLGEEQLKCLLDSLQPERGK

For “Scrib Scrib-C, 1235-1630 (from UniProt Q14160-1) Scrib-C S1508A”, the “binding against the reference” value was “weaker”.
